Test results: patent US20240240234

How the values were obtained:
[1] = test system: Hia5 adenine methyltransferase; settings: methylation efficiency by DpnII protection; SAM; 0.1% BSA improves
[2] = test system: EcoGII adenine methyltransferase; settings: methylation efficiency by DpnII protection; SAM; 0.1% BSA improves
[3] = test system: LMNB1 (Lamin B1) (Homo sapiens); settings: DiMeLo-seq pA-Hia5 in situ, signal:background mA ratio (IgG control 1.6)

Row | Substance | activity [1] [%] | activity [2] [%] | binding signal [3]
1 | 90-bp duplex with single GATC | 100 | 100 | 
2 | constitutive lamina-associated domains (cLADs) |  |  | 34.3
